Measured values taken from patent KR20130126543A (dated 2013).

Columns and labels:
TNF-α = target: T1, TNF-α (UniProt P01375 77-233); assay: ELISA; TNF-α coated 100 ng/well; protein from 100 nM in 1/4 steps; anti-Human Fc-HRP
T1 construct: Coated at 100 ng/well; also called TNF-a; TNF-α 리간드

IL-6R-Fc 항원 [1] = target: T2, IL-6R-Fc 항원 (human, UniProt P08887 20-365, limits assumed); assay: assay on IL-6R not described for the bispecific protein
T2 construct: domain: IL-6R full domain; Made in-house as IL-6R-Fc; also called IL-6R full; IL-6R full domain인 단백질; not shown: Fc part (vector pYK 604)
T2 sequence (looked up): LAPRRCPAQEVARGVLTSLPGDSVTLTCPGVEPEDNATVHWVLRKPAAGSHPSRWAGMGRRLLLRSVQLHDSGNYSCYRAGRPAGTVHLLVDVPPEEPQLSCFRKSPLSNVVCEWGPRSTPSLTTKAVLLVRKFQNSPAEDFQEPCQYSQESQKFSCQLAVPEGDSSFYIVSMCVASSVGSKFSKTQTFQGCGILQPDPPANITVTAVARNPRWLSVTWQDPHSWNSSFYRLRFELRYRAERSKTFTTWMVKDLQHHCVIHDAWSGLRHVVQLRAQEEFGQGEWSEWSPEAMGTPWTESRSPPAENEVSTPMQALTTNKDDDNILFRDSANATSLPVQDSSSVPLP

IL-6R-Fc 항원 [2] = target: T2, IL-6R-Fc 항원; assay: ELISA; IL-6R coated 100 ng/well; IgG at 0.19531 nM; anti-Fab-HRP
IL-6R-Fc 항원 [3] = target: T2, IL-6R-Fc 항원; assay: ELISA; IL-6R coated 100 ng/well; IgG at 0.04883 nM; anti-Fab-HRP
IL-6R-Fc 항원 [4] = target: T2, IL-6R-Fc 항원; assay: ELISA titration on coated IL-6R; fit R2 0.98
IL-6R-Fc 항원 [5] = target: T2, IL-6R-Fc 항원; assay: ELISA; IL-6R coated 100 ng/well; IgG at 3.125 nM; anti-Fab-HRP
IL-6R-Fc 항원 [6] = target: T2, IL-6R-Fc 항원; assay: ELISA; IL-6R coated 100 ng/well; IgG at 50 nM; anti-Fab-HRP
IL-6R-Fc 항원 [7] = target: T2, IL-6R-Fc 항원; assay: ELISA; IL-6R coated 100 ng/well; IgG at 0.09766 nM; anti-Fab-HRP
IL-6R-Fc 항원 [8] = target: T2, IL-6R-Fc 항원; assay: ELISA; IL-6R coated 100 ng/well; IgG at 0.78125 nM; anti-Fab-HRP
IL-6R-Fc 항원 [9] = target: T2, IL-6R-Fc 항원; assay: ELISA; IL-6R coated 100 ng/well; IgG at 0.39063 nM; anti-Fab-HRP
IL-6R-Fc 항원 [10] = target: T2, IL-6R-Fc 항원; assay: ELISA titration on coated IL-6R (repeats the 3rd table)
IL-6R-Fc 항원 [11] = target: T2, IL-6R-Fc 항원; assay: ELISA; IL-6R coated 100 ng/well; IgG at 25 nM; anti-Fab-HRP
IL-6R-Fc 항원 [12] = target: T2, IL-6R-Fc 항원; assay: ELISA; IL-6R coated 100 ng/well; IgG at 12.5 nM; anti-Fab-HRP
IL-6R-Fc 항원 [13] = target: T2, IL-6R-Fc 항원; assay: ELISA; IL-6R coated 100 ng/well; IgG at 1.5625 nM; anti-Fab-HRP
IL-6R-Fc 항원 [14] = target: T2, IL-6R-Fc 항원; assay: ELISA; IL-6R coated 100 ng/well; IgG at 0.02441 nM; anti-Fab-HRP
IL-6R-Fc 항원 [15] = target: T2, IL-6R-Fc 항원; assay: ELISA; IL-6R coated 100 ng/well; IgG at 6.25 nM; anti-Fab-HRP
a-Myc = target: T3, a-Myc; assay: mono phage ELISA; a-Myc coated 100 ng/well; anti-M13-HRP
T3 construct: Coated at 100 ng/well in the phage ELISAs

IL-6R-Fc 항원 [16] = target: T2, IL-6R-Fc 항원; assay: ELISA titration on coated IL-6R; fit R2 0.8
IL-6R-Fc 항원 [17] = target: T2, IL-6R-Fc 항원; assay: ELISA titration on coated IL-6R; fit R2 0.75
IL-6R-Fc 항원 [18] = target: T2, IL-6R-Fc 항원; assay: ELISA titration on coated IL-6R; fit R2 0.93

T1 sequence (P01375 77-233 limits assumed): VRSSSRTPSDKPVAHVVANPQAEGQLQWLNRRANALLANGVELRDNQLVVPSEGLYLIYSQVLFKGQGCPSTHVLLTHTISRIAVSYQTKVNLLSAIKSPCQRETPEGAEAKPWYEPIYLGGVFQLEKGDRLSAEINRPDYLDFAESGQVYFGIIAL

B1: B10/TNFR2 (bispecific antibody)
heavy: not shown
light: DVHSQLVLTQPPSVSGAPGQTVTISCTGPTIGAGYDVHWYQQLPGAAPKLLIYGNLNRPSGVPDRFSGSKSGTSASLAITDLQAEDEADYYCHTYDSSLSGSWVFGGGTKLTVL
notes: also called Anti-IL-6R/TNFR2
- Kd (TNF-α): 0.72 nM
- Kd (IL-6R-Fc 항원 [1]): 4.3 nM

B2: A7/TNFR2 (bispecific antibody)
heavy: not shown
light: DVHSQLVLTQPPSVSGAPGQRVTISCTGTNSNIGAGYDVHWYQQVPGTTPKLLIYGNTNRPSGVPDRFSGSKSGTSASLAITGLQAEDGGDYYCQSFDSSLTGSVFGTGTKVTVL
notes: also called Anti-IL-6R/TNFR2; Dual
- Kd (IL-6R-Fc 항원 [1]): 2.3 nM

B3: 항 IL-6R 단클론 항체 F2 (antibody, V domains shown)
VH: QVQLVESGAEVKKPGASVKVSCKASGYTFTNYYMHWVRQAPGQGLEWMGIINPSGGNTGYAQKFQGRVTMTRDMSTSTAYMELSSLRSEDTAVYYCARGLPWGENGLDVWGQGTTVTVSS
VL: SQLVLTQPSSVSGAPGQTVTISCTGSSSNIGAGYDVHWYQQLPGTAPKVLIYGDSDRPSGVPDRFSGSKSATSASLAITGLQAEDEADYYCQSYDSSLSAYVFGTGTKVTVL
- OD 490 nm (IL-6R-Fc 항원 [2]): 1.01 OD490
- OD 490 nm (IL-6R-Fc 항원 [3]): 0.584 OD490
- Kd (IL-6R-Fc 항원 [4]): 0.35 nM
- OD 490 nm (IL-6R-Fc 항원 [5]): 2.72 OD490
- OD 490 nm (IL-6R-Fc 항원 [6]): 2.99 OD490
- OD 490 nm (IL-6R-Fc 항원 [7]): 0.743 OD490
- OD 490 nm (IL-6R-Fc 항원 [8]): 1.9 OD490
- OD 490 nm (IL-6R-Fc 항원 [9]): 1.41 OD490
- Kd (IL-6R-Fc 항원 [10]): 0.35 nM
- OD 490 nm (IL-6R-Fc 항원 [11]): 2.89 OD490
- OD 490 nm (IL-6R-Fc 항원 [12]): 2.92 OD490
- OD 490 nm (IL-6R-Fc 항원 [13]): 2.43 OD490
- OD 490 nm (IL-6R-Fc 항원 [14]): 0.535 OD490
- OD 490 nm (IL-6R-Fc 항원 [15]): 2.71 OD490

B4: 모노 파아지 클론 F2 (scFv, V domains shown)
VH: QVQLVESGAEVKKPGASVKVSCKASGYTFTNYYMHWVRQAPGQGLEWMGIINPSGGNTGYAQKFQGRVTMTRDMSTSTAYMELSSLRSEDTAVYYCARGLPWGENGLDVWGQGTTVTVSS
VL: SQLVLTQPSSVSGAPGQTVTISCTGSSSNIGAGYDVHWYQQLPGTAPKVLIYGDSDRPSGVPDRFSGSKSATSASLAITGLQAEDEADYYCQSYDSSLSAYVFGTGTKVTVL
notes: also called F02
- OD 490 nm (a-myc) (a-Myc): 0.287 OD490

B5: 항 IL-6R 단클론 항체 D2 (antibody, V domains shown)
VH: QVQLVESGAEVKKPGSSVKVSCKGSGDTFPNYAINWVRQAPGQGPEWMGRIIPMLGTSDYAEKFQGRVTITADKSTNTAYMGLNSLRSEDTAVYYCVKGPRYYGTDSYYLEKWGQGTMVTVSS
VL: SQLVLTQPPSVSGAPGQTVTISCTGPTIGAGYDVHWYQQLPGAAPKLLIYGNLNRPSGVPDRFSGSKSGTSASLAITDLQAEDEADYYCHTYDSSLSGSWVFGGGTKLTVL
- OD 490 nm (IL-6R-Fc 항원 [2]): 0.469 OD490
- OD 490 nm (IL-6R-Fc 항원 [3]): 0.451 OD490
- OD 490 nm (IL-6R-Fc 항원 [5]): 0.719 OD490
- OD 490 nm (IL-6R-Fc 항원 [6]): 2.38 OD490
- OD 490 nm (IL-6R-Fc 항원 [7]): 0.45 OD490
- OD 490 nm (IL-6R-Fc 항원 [8]): 0.479 OD490
- OD 490 nm (IL-6R-Fc 항원 [9]): 0.473 OD490
- Kd (IL-6R-Fc 항원 [16]): 7.5 nM
- Kd (IL-6R-Fc 항원 [10]): 7.5 nM
- OD 490 nm (IL-6R-Fc 항원 [11]): 1.94 OD490
- OD 490 nm (IL-6R-Fc 항원 [12]): 1.47 OD490
- OD 490 nm (IL-6R-Fc 항원 [13]): 0.584 OD490
- OD 490 nm (IL-6R-Fc 항원 [14]): 0.449 OD490
- OD 490 nm (IL-6R-Fc 항원 [15]): 0.981 OD490

B6: 모노 파아지 클론 D2 (scFv, V domains shown)
VH: QVQLVESGAEVKKPGSSVKVSCKGSGDTFPNYAINWVRQAPGQGPEWMGRIIPMLGTSDYAEKFQGRVTITADKSTNTAYMGLNSLRSEDTAVYYCVKGPRYYGTDSYYLEKWGQGTMVTVSS
VL: SQLVLTQPPSVSGAPGQTVTISCTGPTIGAGYDVHWYQQLPGAAPKLLIYGNLNRPSGVPDRFSGSKSGTSASLAITDLQAEDEADYYCHTYDSSLSGSWVFGGGTKLTVL
notes: also called D02
- OD 490 nm (a-myc) (a-Myc): 0.303 OD490

B7: 항 IL-6R 단클론 항체 B10 (antibody, V domains shown)
VH: QVQLVESGGGLVQPGGSLRLSCAASGFIFDDYAMFWVRQVPGKGLEWVAGINWNGNGIGYGDSVRGRFIISRDNARNSLDLQMNSLRAEDTAVYYCARPSLYGGNSEFDLWGQGTLVTVSS
VL: SQLVLTQPPSVSGAPGQTVTISCTGPTIGAGYDVHWYQQLPGAAPKLLIYGNLNRPSGVPDRFSGSKSGTSASLAITDLQAEDEADYYCHTYDSSLSGSWVFGGGTKLTVL
- OD 490 nm (IL-6R-Fc 항원 [2]): 0.429 OD490
- OD 490 nm (IL-6R-Fc 항원 [3]): 0.451 OD490
- OD 490 nm (IL-6R-Fc 항원 [5]): 0.761 OD490
- OD 490 nm (IL-6R-Fc 항원 [6]): 2.09 OD490
- OD 490 nm (IL-6R-Fc 항원 [7]): 0.462 OD490
- OD 490 nm (IL-6R-Fc 항원 [8]): 0.5 OD490
- OD 490 nm (IL-6R-Fc 항원 [9]): 0.476 OD490
- Kd (IL-6R-Fc 항원 [10]): 4.3 nM
- OD 490 nm (IL-6R-Fc 항원 [11]): 1.78 OD490
- OD 490 nm (IL-6R-Fc 항원 [12]): 1.39 OD490
- Kd (IL-6R-Fc 항원 [17]): 4.3 nM
- OD 490 nm (IL-6R-Fc 항원 [13]): 0.607 OD490
- OD 490 nm (IL-6R-Fc 항원 [14]): 0.468 OD490
- OD 490 nm (IL-6R-Fc 항원 [15]): 1.04 OD490

B8: 모노 파아지 클론 B10 (scFv, V domains shown)
VH: QVQLVESGGGLVQPGGSLRLSCAASGFIFDDYAMFWVRQVPGKGLEWVAGINWNGNGIGYGDSVRGRFIISRDNARNSLDLQMNSLRAEDTAVYYCARPSLYGGNSEFDLWGQGTLVTVSS
VL: SQLVLTQPPSVSGAPGQTVTISCTGPTIGAGYDVHWYQQLPGAAPKLLIYGNLNRPSGVPDRFSGSKSGTSASLAITDLQAEDEADYYCHTYDSSLSGSWVFGGGTKLTVL
notes: also called 6B10
- OD 490 nm (a-myc) (a-Myc): 0.113 OD490

B9: 항 IL-6R 단클론 항체 A7 (antibody, V domains shown)
VH: QMQLVESGGGLVQPGTSLRLSCAASGFKFEDYAMHWVRQAPGKGLEWVSGVSWNSGTIAYVDSVKGRFTISRDNAKNSLYLQMNSLRAEDTAVYYCARDFTYFYESSGYYAFDLWGQGTMVTVSS
VL: SQLVLTQPPSVSGAPGQRVTISCTGTNSNIGAGYDVHWYQQVPGTTPKLLIYGNTNRPSGVPDRFSGSKSGTSASLAITGLQAEDGGDYYCQSFDSSLTGSVFGTGTKVTVL
- OD 490 nm (IL-6R-Fc 항원 [2]): 0.546 OD490
- OD 490 nm (IL-6R-Fc 항원 [3]): 0.498 OD490
- OD 490 nm (IL-6R-Fc 항원 [5]): 1.64 OD490
- OD 490 nm (IL-6R-Fc 항원 [6]): 3.1 OD490
- Kd (IL-6R-Fc 항원 [18]): 2.3 nM
- OD 490 nm (IL-6R-Fc 항원 [7]): 0.497 OD490
- OD 490 nm (IL-6R-Fc 항원 [8]): 0.782 OD490
- OD 490 nm (IL-6R-Fc 항원 [9]): 0.618 OD490
- Kd (IL-6R-Fc 항원 [10]): 2.3 nM
- OD 490 nm (IL-6R-Fc 항원 [11]): 2.84 OD490
- OD 490 nm (IL-6R-Fc 항원 [12]): 2.58 OD490
- OD 490 nm (IL-6R-Fc 항원 [13]): 1.17 OD490
- OD 490 nm (IL-6R-Fc 항원 [14]): 0.514 OD490
- OD 490 nm (IL-6R-Fc 항원 [15]): 2.13 OD490

B10: 모노 파아지 클론 A7 (scFv, V domains shown)
VH: QMQLVESGGGLVQPGTSLRLSCAASGFKFEDYAMHWVRQAPGKGLEWVSGVSWNSGTIAYVDSVKGRFTISRDNAKNSLYLQMNSLRAEDTAVYYCARDFTYFYESSGYYAFDLWGQGTMVTVSS
VL: SQLVLTQPPSVSGAPGQRVTISCTGTNSNIGAGYDVHWYQQVPGTTPKLLIYGNTNRPSGVPDRFSGSKSGTSASLAITGLQAEDGGDYYCQSFDSSLTGSVFGTGTKVTVL
notes: also called A07
- OD 490 nm (a-myc) (a-Myc): 0.0797 OD490
